From patent US20110319287A1, “MODULATOR ASSAY” (ADDEX PHARMA S.A., priority 2009, published 2011)
Each block holds one substance with its values, some of them ahead of it.

Key:
Assay in all cases: cell-based or functional assay
[1] = molecular target: Recombinant Human TL1A/TNFSF15 (R&D Systems, Cat N° 1319-TL) (human) (UniProt O95150)
[2] = molecular target: DR3 receptor expressed in HeLa TRADD DR3 cells (Homo sapiens (Human)) (UniProt Q93038)
[3] = molecular target: recombinant human TNF-α (Peprotech, Cat N° 300-01A) (human) (UniProt P01375)
recombinant human TNF-α (Peprotech, Cat N° 300-01A) (human), sequence (P01375 77-233 limits assumed): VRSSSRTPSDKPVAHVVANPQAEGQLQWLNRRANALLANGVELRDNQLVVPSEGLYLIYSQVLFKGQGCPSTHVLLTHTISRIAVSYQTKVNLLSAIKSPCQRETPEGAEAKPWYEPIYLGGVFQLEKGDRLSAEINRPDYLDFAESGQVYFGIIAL

DR3 receptor expressed in HeLa TRADD DR3 cells (Homo sapiens (Human)), sequence (Q93038 other isoform, or with tags, fused parts or gaps, form in doubt): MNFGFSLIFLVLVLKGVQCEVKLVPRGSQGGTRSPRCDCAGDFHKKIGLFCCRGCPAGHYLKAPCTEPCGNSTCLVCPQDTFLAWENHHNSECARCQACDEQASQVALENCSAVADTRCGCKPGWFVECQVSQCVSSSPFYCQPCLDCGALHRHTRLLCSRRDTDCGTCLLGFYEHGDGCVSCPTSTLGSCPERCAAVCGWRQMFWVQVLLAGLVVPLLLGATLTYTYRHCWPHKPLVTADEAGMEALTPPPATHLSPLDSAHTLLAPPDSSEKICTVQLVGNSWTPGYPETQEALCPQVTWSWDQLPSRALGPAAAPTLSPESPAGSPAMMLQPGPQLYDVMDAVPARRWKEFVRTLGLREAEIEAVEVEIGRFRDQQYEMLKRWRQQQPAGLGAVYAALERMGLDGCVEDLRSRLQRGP
Recombinant Human TL1A/TNFSF15 (R&D Systems, Cat N° 1319-TL) (human), sequence (O95150 72-251 limits assumed): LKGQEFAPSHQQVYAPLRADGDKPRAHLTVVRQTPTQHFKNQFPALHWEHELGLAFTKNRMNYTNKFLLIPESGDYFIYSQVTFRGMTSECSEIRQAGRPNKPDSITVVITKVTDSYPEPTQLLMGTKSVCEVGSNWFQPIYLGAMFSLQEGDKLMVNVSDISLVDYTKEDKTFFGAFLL

IC50 of inhibition of TL1A-induced TRADD-EYFP relocalisation in HeLa TRADD DR3 cells (300 ng/ml TL1A, FIG. 17) [1]: 1.41 mg/L
Substance: Recombinant Human DcR3/TNFRSF6B/Fc Chimera, CF (R&D Systems, Cat N° 142-DC) (from UniProt O95407 30-300) (Fc fusion)

EC50 of TL1A-induced relocalisation of TRADD-EYFP in HeLa TRADD DR3 cells (FIG. 17) [2]: 0.0043 mg/L
Substance: Recombinant Human TL1A/TNFSF15 (R&D Systems, Cat N° 1319-TL) (from UniProt O95150 72-251) (ligand)

IC50 of inhibition of TNF-induced TRADD-EYFP relocalisation in HeLa TRADD DR3 cells (100 ng/ml TNF, FIG. 19) [3]: 0.0538 mg/L | IC50 of inhibition of TNF-induced relocalisation of TRADD-EYFP (TNF dose 300 ng/ml, FIG. 9) [3]: 2.74 µM
Substance: etanercept (Enbrel®, from Amgen, Inc.) (Fc fusion)
